The record followed here is PMC10786891, “Massively parallel profiling of RNA-targeting CRISPR-Cas13d”.

To fix the notation:
T1: EsCas13d, nuclease-dead (Eubacterium siraeum, UniProt B0MS50, R295A;H300A;R849A;H854A)
T1 sequence: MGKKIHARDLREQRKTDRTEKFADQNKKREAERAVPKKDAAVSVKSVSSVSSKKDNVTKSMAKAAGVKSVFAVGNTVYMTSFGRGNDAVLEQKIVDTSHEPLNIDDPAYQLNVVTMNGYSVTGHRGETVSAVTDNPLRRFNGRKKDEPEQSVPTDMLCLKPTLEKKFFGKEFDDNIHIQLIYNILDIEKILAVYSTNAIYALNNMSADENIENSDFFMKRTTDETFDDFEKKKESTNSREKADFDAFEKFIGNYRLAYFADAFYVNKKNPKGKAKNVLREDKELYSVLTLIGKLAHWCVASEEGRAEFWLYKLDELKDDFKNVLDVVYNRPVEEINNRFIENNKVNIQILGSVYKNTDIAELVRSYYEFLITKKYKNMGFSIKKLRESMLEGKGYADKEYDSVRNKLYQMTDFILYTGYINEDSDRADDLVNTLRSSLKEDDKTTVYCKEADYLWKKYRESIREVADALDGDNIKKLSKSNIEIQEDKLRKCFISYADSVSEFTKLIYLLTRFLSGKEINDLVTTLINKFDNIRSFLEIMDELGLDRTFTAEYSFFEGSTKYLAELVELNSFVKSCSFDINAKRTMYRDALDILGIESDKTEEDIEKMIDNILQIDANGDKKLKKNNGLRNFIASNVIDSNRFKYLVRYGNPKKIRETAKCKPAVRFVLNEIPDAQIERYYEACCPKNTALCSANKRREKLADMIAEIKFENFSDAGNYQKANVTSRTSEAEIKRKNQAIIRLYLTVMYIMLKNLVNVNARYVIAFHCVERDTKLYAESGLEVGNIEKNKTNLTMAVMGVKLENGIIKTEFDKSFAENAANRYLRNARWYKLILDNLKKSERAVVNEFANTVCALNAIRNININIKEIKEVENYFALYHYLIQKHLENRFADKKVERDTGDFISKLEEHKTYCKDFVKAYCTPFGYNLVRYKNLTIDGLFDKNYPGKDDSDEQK

B1: target 1 insU 3' of 13 (mixed)
RNA 1: CACCCGUGCAAAAAUGCAGGGGUCUAAAACUGAGCGGAUAACCUCUCUAUGG
RNA 2: GGGAAUGGAUCCACAUCUACGAAUUCGUACCAUAGAGAGUGUUAUCCGCUCACCGAGAUCGGAAGAGCACACGU
B2: target 1 C2A,C6A (mixed)
RNA 1: CACCCGUGCAAAAAUGCAGGGGUCUAAAACUGAGCGGAUAACCUCUCUAUGG
RNA 2: GGGAAUGGAUCCACAUCUACGAAUUCGUACCAUAGAGAGGUUAUCAGCUAACCGAGAUCGGAAGAGCACACGU
B3: target 1 insC 3' of 20,insA 3' of 17 (mixed)
RNA 1: CACCCGUGCAAAAAUGCAGGGGUCUAAAACUGAGCGGAUAACCUCUCUAUGG
RNA 2: GGGAAUGGAUCCACAUCUACGAAUUCGUACCACUAGAAGAGGUUAUCCGCUCACCGAGAUCGGAAGAGCACACGU
B4: target 1 insA 3' of 3,insG 3' of 1 (mixed)
RNA 1: CACCCGUGCAAAAAUGCAGGGGUCUAAAACUGAGCGGAUAACCUCUCUAUGG
RNA 2: GGGAAUGGAUCCACAUCUACGAAUUCGUACCAUAGAGAGGUUAUCCGCUACAGCCGAGAUCGGAAGAGCACACGU
B5: target 1 G17U,U19A (mixed)
RNA 1: CACCCGUGCAAAAAUGCAGGGGUCUAAAACUGAGCGGAUAACCUCUCUAUGG
RNA 2: GGGAAUGGAUCCACAUCUACGAAUUCGUACCAAAUAGAGGUUAUCCGCUCACCGAGAUCGGAAGAGCACACGU
B6: target 1 insA 3' of 22,insA 3' of 8 (mixed)
RNA 1: CACCCGUGCAAAAAUGCAGGGGUCUAAAACUGAGCGGAUAACCUCUCUAUGG
RNA 2: GGGAAUGGAUCCACAUCUACGAAUUCGUACACAUAGAGAGGUUAUACCGCUCACCGAGAUCGGAAGAGCACACGU
B7: target 1 insU 3' of 13,insU 3' of 7 (mixed)
RNA 1: CACCCGUGCAAAAAUGCAGGGGUCUAAAACUGAGCGGAUAACCUCUCUAUGG
RNA 2: GGGAAUGGAUCCACAUCUACGAAUUCGUACCAUAGAGAGUGUUAUCUCGCUCACCGAGAUCGGAAGAGCACACGU
B8: target 1 insG 3' of 18,insA 3' of 13 (mixed)
RNA 1: CACCCGUGCAAAAAUGCAGGGGUCUAAAACUGAGCGGAUAACCUCUCUAUGG
RNA 2: GGGAAUGGAUCCACAUCUACGAAUUCGUACCAUAGGAGAGAGUUAUCCGCUCACCGAGAUCGGAAGAGCACACGU
B9: target 1 G13C,C22U (mixed)
RNA 1: CACCCGUGCAAAAAUGCAGGGGUCUAAAACUGAGCGGAUAACCUCUCUAUGG
RNA 2: GGGAAUGGAUCCACAUCUACGAAUUCGUAUCAUAGAGACGUUAUCCGCUCACCGAGAUCGGAAGAGCACACGU
B10: target 1 insA 3' of 3,insC 3' of 1 (mixed)
RNA 1: CACCCGUGCAAAAAUGCAGGGGUCUAAAACUGAGCGGAUAACCUCUCUAUGG
RNA 2: GGGAAUGGAUCCACAUCUACGAAUUCGUACCAUAGAGAGGUUAUCCGCUACACCCGAGAUCGGAAGAGCACACGU
B11: target 1 C7G,U8G (mixed)
RNA 1: CACCCGUGCAAAAAUGCAGGGGUCUAAAACUGAGCGGAUAACCUCUCUAUGG
RNA 2: GGGAAUGGAUCCACAUCUACGAAUUCGUACCAUAGAGAGGUUAGGCGCUCACCGAGAUCGGAAGAGCACACGU
B12: target 1 insG 3' of 8,insG 3' of 2 (mixed)
RNA 1: CACCCGUGCAAAAAUGCAGGGGUCUAAAACUGAGCGGAUAACCUCUCUAUGG
RNA 2: GGGAAUGGAUCCACAUCUACGAAUUCGUACCAUAGAGAGGUUAUGCCGCUCGACCGAGAUCGGAAGAGCACACGU
B13: target 1 C7A,A16C (mixed)
RNA 1: CACCCGUGCAAAAAUGCAGGGGUCUAAAACUGAGCGGAUAACCUCUCUAUGG
RNA 2: GGGAAUGGAUCCACAUCUACGAAUUCGUACCAUAGCGAGGUUAUACGCUCACCGAGAUCGGAAGAGCACACGU
B14: target 1 insU 3' of 14,insA 3' of 7 (mixed)
RNA 1: CACCCGUGCAAAAAUGCAGGGGUCUAAAACUGAGCGGAUAACCUCUCUAUGG
RNA 2: GGGAAUGGAUCCACAUCUACGAAUUCGUACCAUAGAGAUGGUUAUCACGCUCACCGAGAUCGGAAGAGCACACGU
B15: target 1 insC 3' of 18,insG 3' of 7 (mixed)
RNA 1: CACCCGUGCAAAAAUGCAGGGGUCUAAAACUGAGCGGAUAACCUCUCUAUGG
RNA 2: GGGAAUGGAUCCACAUCUACGAAUUCGUACCAUACGAGAGGUUAUCGCGCUCACCGAGAUCGGAAGAGCACACGU
B16: target 1 C2U,C21A (mixed)
RNA 1: CACCCGUGCAAAAAUGCAGGGGUCUAAAACUGAGCGGAUAACCUCUCUAUGG
RNA 2: GGGAAUGGAUCCACAUCUACGAAUUCGUACAAUAGAGAGGUUAUCCGCUUACCGAGAUCGGAAGAGCACACGU
B17: target 1 insU 3' of 17,insA 3' of 12 (mixed)
RNA 1: CACCCGUGCAAAAAUGCAGGGGUCUAAAACUGAGCGGAUAACCUCUCUAUGG
RNA 2: GGGAAUGGAUCCACAUCUACGAAUUCGUACCAUAGUAGAGGAUUAUCCGCUCACCGAGAUCGGAAGAGCACACGU
B18: target 1 U10C,U19A (mixed)
RNA 1: CACCCGUGCAAAAAUGCAGGGGUCUAAAACUGAGCGGAUAACCUCUCUAUGG
RNA 2: GGGAAUGGAUCCACAUCUACGAAUUCGUACCAAAGAGAGGUCAUCCGCUCACCGAGAUCGGAAGAGCACACGU
B19: target 1 insG 3' of 14,insC 3' of 5 (mixed)
RNA 1: CACCCGUGCAAAAAUGCAGGGGUCUAAAACUGAGCGGAUAACCUCUCUAUGG
RNA 2: GGGAAUGGAUCCACAUCUACGAAUUCGUACCAUAGAGAGGGUUAUCCGCCUCACCGAGAUCGGAAGAGCACACGU
B20: target 1 U11G,C22A (mixed)
RNA 1: CACCCGUGCAAAAAUGCAGGGGUCUAAAACUGAGCGGAUAACCUCUCUAUGG
RNA 2: GGGAAUGGAUCCACAUCUACGAAUUCGUAACAUAGAGAGGGUAUCCGCUCACCGAGAUCGGAAGAGCACACGU
B21: target 1 insA 3' of 3,insU 3' of 1 (mixed)
RNA 1: CACCCGUGCAAAAAUGCAGGGGUCUAAAACUGAGCGGAUAACCUCUCUAUGG
RNA 2: GGGAAUGGAUCCACAUCUACGAAUUCGUACCAUAGAGAGGUUAUCCGCUACAUCCGAGAUCGGAAGAGCACACGU
B22: target 1 insA 3' of 7 (mixed)
RNA 1: CACCCGUGCAAAAAUGCAGGGGUCUAAAACUGAGCGGAUAACCUCUCUAUGG
RNA 2: GGGAAUGGAUCCACAUCUACGAAUUCGUACCAUAGAGAGGUUAUCACGCUCACCGAGAUCGGAAGAGCACACGU
B23: target 1 insG 3' of 19,insC 3' of 3 (mixed)
RNA 1: CACCCGUGCAAAAAUGCAGGGGUCUAAAACUGAGCGGAUAACCUCUCUAUGG
RNA 2: GGGAAUGGAUCCACAUCUACGAAUUCGUACCAUGAGAGAGGUUAUCCGCUCCACCGAGAUCGGAAGAGCACACGU
B24: target 1 C4G,A14G (mixed)
RNA 1: CACCCGUGCAAAAAUGCAGGGGUCUAAAACUGAGCGGAUAACCUCUCUAUGG
RNA 2: GGGAAUGGAUCCACAUCUACGAAUUCGUACCAUAGAGGGGUUAUCCGGUCACCGAGAUCGGAAGAGCACACGU
B25: target 1 insC 3' of 19,insC 3' of 13 (mixed)
RNA 1: CACCCGUGCAAAAAUGCAGGGGUCUAAAACUGAGCGGAUAACCUCUCUAUGG
RNA 2: GGGAAUGGAUCCACAUCUACGAAUUCGUACCAUCAGAGAGCGUUAUCCGCUCACCGAGAUCGGAAGAGCACACGU
B26: target 1 insC 3' of 17,insA 3' of 3 (mixed)
RNA 1: CACCCGUGCAAAAAUGCAGGGGUCUAAAACUGAGCGGAUAACCUCUCUAUGG
RNA 2: GGGAAUGGAUCCACAUCUACGAAUUCGUACCAUAGCAGAGGUUAUCCGCUACACCGAGAUCGGAAGAGCACACGU
B27: target 1 U3A,U11G (mixed)
RNA 1: CACCCGUGCAAAAAUGCAGGGGUCUAAAACUGAGCGGAUAACCUCUCUAUGG
RNA 2: GGGAAUGGAUCCACAUCUACGAAUUCGUACCAUAGAGAGGGUAUCCGCACACCGAGAUCGGAAGAGCACACGU

This data set concerns the target T1, EsCas13d, nuclease-dead. Description: crRNA (strand 1, pre-loaded); Mg2+; 40 mM Tris-HCl pH 7.5, 150 mM NaCl, 6 mM MgCl2, 1 mM DTT, 0.1% Tween-20, 0.2 mg/ml BSA; 25 C; 10 min per concentration, then washed. As to conditions: tags: His6-TwinStrep-SUMO cleaved; N-terminal SNAP kept (SNAP-Surface 488); label: 3' end held by stalled T7 RNA polymerase.
For B1, the equilibrium dissociation constant (Kd) – broadly, the concentration at which binding is half-saturated – turned out to be 11.4 ± 1.5 nM.

For B2, binding was put at a Kd of 4.84 ± 0.28 nM.

B3: the Kd came out at 8.5 ± 0.8 nM.

Turning to B4, binding was put at a Kd of 5.69 ± 0.25 nM.

As for B5, binding was characterised by a dissociation constant (Kd) of 36.8 ± 2.9 nM.

B6 came in with a dissociation constant Kd of 20.9 ± 1.3 nM.

In turn, B7 showed a Kd of 13.7 ± 0.8 nM.

Molecule B8 showed an equilibrium dissociation constant (Kd) of 46 ± 6 nM.

B9 returned a Kd of 62 ± 19 nM.

Take B10: the Kd amounted to 23 ± 4 nM.

Take B11: binding was characterised by a dissociation constant (Kd) of 11.5 ± 0.9 nM. Compared with the last molecule, the Kd is about 2-fold lower.

In the case of B12, the Kd is 13.1 ± 0.6 nM.

B13: the dissociation constant Kd worked out at 56.1 ± 2.7 nM.

For the molecule B14, binding was characterised by a dissociation constant (Kd) of 32.2 ± 3 nM.

In the case of B15, the affinity, expressed as Kd, was 36.8 ± 2.2 nM.

Turning to B16, binding was characterised by a dissociation constant (Kd) of 28.1 ± 3.1 nM.

The molecule B17 gave a Kd of 37 ± 6 nM.

For the molecule B18, the Kd is 100 ± 40 nM.

Molecule B19 gave a Kd of 12.1 ± 1 nM.

Take B20: the Kd is 39 ± 8 nM. Compared with the last molecule, the Kd is about 3.2-fold higher.

For B21, the Kd was determined as 9.2 ± 0.5 nM.

On to B22, for which the dissociation constant Kd came to 5.49 ± 0.21 nM. Against the preceding molecule, the Kd is about 1.7-fold lower.

B23 returned an equilibrium dissociation constant (Kd) of 62 ± 8 nM.

Regarding B24, binding was characterised by a dissociation constant (Kd) of 13.2 ± 1.2 nM. This Kd is about 4.7-fold lower than that of the molecule before.

As for B25, the equilibrium dissociation constant (Kd) stood at 49 ± 15 nM.

Turning to B26, the Kd is 53 ± 8 nM.

Consider B27, for which the affinity, expressed as Kd, was 12.2 ± 0.7 nM.
